Substitutions are numbered along the chain they refer to.
What was measured:
IgG in human serum [1] = assay: batch adsorption from human serum with 20 µg/ml Model IC, peptide on GC700m gel (4.0 mg/ml), not sterilised, N-Assay TIA kit
[2] = molecular target: thermally coagulated immunoglobulin complexes; assay: batch adsorption from human serum with 20 µg/ml Model IC, peptide on GC700m gel (4.0 mg/ml), not sterilised, C1q-CIC enzyme immunoassay
[3] = molecular target: IgG2 subclass in human serum; assay: batch adsorption from the serum of a healthy subject, peptide on Thiopropyl Sepharose 6B (0.8 mg/ml), supernatant by immune diffusion (SRID)
[4] = molecular target: IgG3 subclass in human serum; assay: as above
[5] = molecular target: IgG4 subclass in human serum; assay: as above
[6] = molecular target: IgG1 subclass in human serum; assay: as above
[7] = molecular target: thermally coagulated immunoglobulin complexes; assay: batch adsorption from healthy human serum with 20 µg/ml thermally coagulated complexes, peptide on Thiopropyl Sepharose 6B (0.8 mg/ml), 37 °C 2 h, supernatant by C1q-CIC kit
IgM in human serum = assay: batch adsorption from the serum of a healthy subject, peptide on Thiopropyl Sepharose 6B (0.8 mg/ml), 37 °C 2 h, supernatant by N-Assay TIA kit
IgG in human serum [8] = assay: as above
[9] = molecular target: circulating immune complexes in the serum of a patient suffering from rheumatism; assay: batch adsorption from the serum of a patient suffering from rheumatism, peptide on Thiopropyl Sepharose 6B (0.8 mg/ml), 37 °C 2 h, supernatant by C1q-CIC kit
[10] = molecular target: thermally coagulated immunoglobulin complexes; assay: batch adsorption from human serum with 20 µg/ml Model IC, peptide on GC700m gel (2.6 mg/ml), not sterilised, C1q-CIC enzyme immunoassay
IgG in human serum [11] = assay: batch adsorption from human serum with 20 µg/ml Model IC, peptide on GC700m gel (2.6 mg/ml), not sterilised, N-Assay TIA kit
[12] = molecular target: thermally coagulated immunoglobulin complexes; assay: batch adsorption from human serum with 20 µg/ml Model IC, peptide on GCL2000m gel (2.6 mg/ml), not sterilised, C1q-CIC enzyme immunoassay
IgG in human serum [13] = assay: batch adsorption from human serum with 20 µg/ml Model IC, peptide on GCL2000m gel (2.6 mg/ml), not sterilised, N-Assay TIA kit
[14] = molecular target: thermally coagulated immunoglobulin complexes; assay: batch adsorption from human serum with 20 µg/ml Model IC, peptide on GCL2000m gel (2.1 mg/ml), 37 °C 2 h, not sterilised, C1q-CIC enzyme immunoassay
IgG in human serum [15] = assay: batch adsorption from human serum with 20 µg/ml Model IC, peptide on GCL2000m gel (2.1 mg/ml), 37 °C 2 h, not sterilised, N-Assay TIA kit
IgG in human serum [16] = assay: batch adsorption from human serum with 20 µg/ml Model IC, peptide on AF-Torecyl Toyopearl 650 (3.6 mg/ml), not sterilised, N-Assay TIA kit
[17] = molecular target: thermally coagulated immunoglobulin complexes; assay: batch adsorption from human serum with 20 µg/ml Model IC, peptide on AF-Torecyl Toyopearl 650 (3.6 mg/ml), not sterilised, C1q-CIC enzyme immunoassay
[18] = molecular target: thermally coagulated immunoglobulin complexes; assay: batch adsorption from human serum with 20 µg/ml Model IC, peptide on GCL2000m gel (2.5 mg/ml), not sterilised, C1q-CIC enzyme immunoassay
IgG in human serum [19] = assay: batch adsorption from human serum with 20 µg/ml Model IC, peptide on GCL2000m gel (2.5 mg/ml), not sterilised, N-Assay TIA kit

B1: MP47C peptide (peptide)
peptide: MTTYKLVINGKTLKGETTTKAVDAETAEKAFKQYANDNGVDGVWTYDPATKTFTVTEC
Q: Which results are given for B1?
A: IgG adsorption ratio (%) (IgG in human serum [1]): 90%; IC adsorption ratio (%) [2]: 65%

B2: peptide having a sequence consisting of 57 residues of domain C3 of protein G with cysteine added to an N-terminus (peptide)
peptide: CTTYKLVINGKTLKGETTTKAVDAETAEKAFKQYANDNGVDGVWTYDDATKTFTVTE
Q: How did the adsorption ratio of IgG subclasses (%) [3] turn out when B2 was run?
A: 78.9%

Q: And the adsorption ratio of IgG subclasses (%) [4]?
A: 63.2%

Q: What about the adsorption ratio of IgG subclasses (%) [5] of the same binder?
A: 65.7%

Q: What about the adsorption ratio of IgG subclasses (%) [6] of the same binder?
A: 93.2%

Q: And the adsorption ratio of thermally coagulated complexes (%) [7]?
A: 41.7%

Q: What about the adsorption ratio of immunoglobulins (%) (IgM in human serum) of the same binder?
A: 2.7%

Q: What about the adsorption ratio of immunoglobulins (%) (IgG in human serum [8]) of the same binder?
A: 83.4%

Q: And the adsorption ratio of immune complexes (%) [9]?
A: 29.3%

B3: MG56 peptide (peptide)
peptide: B2 peptide with C1M
Q: How did the IgG adsorption ratio (%) (IgG in human serum [1]) turn out when B3 was run?
A: 65%

Q: What about the IC adsorption ratio (%) [2] of the same binder?
A: 30%

B4: MP47 peptide (peptide)
peptide: B2 peptide with C1M, D48P
Q: For B4, which IC adsorption ratio (%) [10] is on record?
A: 35%

Q: What about the IgG adsorption ratio (%) (IgG in human serum [11]) of the same binder?
A: 60%

B5: MP47K3 peptide (peptide)
peptide: MTTYKLVINGKTLKGETTTKAVDAETAEKAFKQYANDNGVDGVWTYDPATKTFTVTEKKK
Q: How did the IC adsorption ratio (%) [12] turn out when B5 was run?
A: 35%

Q: What about the IgG adsorption ratio (%) (IgG in human serum [13]) of the same binder?
A: 70%

B6: MK3P47 peptide (peptide)
peptide: MKKKTTYKLVINGKTLKGETTTKAVDAETAEKAFKQYANDNGVDGVWTYDPATKTFTVTE
Q: For B6, which IC adsorption ratio (%) [14] is on record?
A: 35%

Q: And the IgG adsorption ratio (%) (IgG in human serum [15])?
A: 85%

B7: MK3-7M peptide (peptide)
peptide: B6 peptide with V10I, I11L, E28A, A33V, V46E
Q: Which results are given for B7?
A: IgG adsorption ratio (%) (IgG in human serum [16]): 75%; IC adsorption ratio (%) [17]: 35%

B8: MK3G56 peptide (peptide)
peptide: B6 peptide with P51D
Q: Which results are given for B8?
A: IC adsorption ratio (%) [18]: 30%; IgG adsorption ratio (%) (IgG in human serum [19]): 70%

Source: patent US6133431
